According to PMC4600761:

Tests used:
[1] = target: Syx-mtq2 (mTurquoise2 fused to the C terminus of syntaxin1A) (rat) (UniProt P32851); assay: FRET or BRET; two-photon FLIM, A1 fraction; Schaffer collateral boutons and axons in the CA1 region of rat hippocampal slice culture, probes by AAV1, resting
[2] = target: Syx-mtq (mTurquoise fused to the C terminus of syntaxin1A) (rat) (UniProt P32851); assay: FRET or BRET; two-photon FLIM of the mtq donor; fast decay component (A1 fraction) taken as the binding fraction of the donor; live rat cortical neurons in dissociated culture, lipofected, resting; boutons and axons
[3] = target: Syx-mtq (mTurquoise fused to the C terminus of syntaxin1A) (rat) (UniProt P32851); assay: FRET or BRET; two-photon FLIM, time-lapse (18 s accumulation); rat cortical neurons in dissociated culture during 300 mM sucrose stimulation; A1 from decay curve fitting or from average lifetime (τ1 0.5 ns assumed)
[4] = target: Syx-mtq2 (mTurquoise2 fused to the C terminus of syntaxin1A) (rat) (UniProt P32851); assay: FRET or BRET; two-photon FLIM, A1 fraction; Schaffer collateral boutons in rat hippocampal slice culture, probes by AAV1, during 300 mM sucrose stimulation
[5] = target: mtq2-Syx (mTurquoise2 fused to the N terminus of syntaxin1A) (rat) (UniProt P32851); assay: FRET or BRET; two-photon FLIM, A1 fraction; Schaffer collateral boutons and axons in the CA1 region of rat hippocampal slice culture, probes by AAV1, resting
[6] = target: mtq-Syx (mTurquoise fused to the N terminus of syntaxin1A) (rat) (UniProt P32851); assay: FRET or BRET; two-photon FLIM, A1 fraction; rat cortical neurons in dissociated culture after chemical fixation and counterstaining with anti-synaptophysin antibody
[7] = target: mtq-Syx (mTurquoise fused to the N terminus of syntaxin1A) (rat) (UniProt P32851); assay: FRET or BRET; two-photon FLIM of the mtq donor; fast decay component (A1 fraction) taken as the binding fraction of the donor; live rat cortical neurons in dissociated culture, lipofected, resting; boutons and axons
[8] = target: mtq-SNAP25b (mTurquoise fused to the N terminus of synaptosomal-associated protein 25b) (mouse) (UniProt P60879); assay: as above
[9] = target: mtq-SNAP25b (mTurquoise fused to the N terminus of synaptosomal-associated protein 25b) (mouse) (UniProt P60879); assay: FRET or BRET; two-photon FLIM, time-lapse (1.8 s), A1 from average lifetime (τ1 0.5 ns assumed); β cells in mouse islets stimulated with 16 mM glucose, region of 0.5 μm diameter around single exocytotic events
[10] = target: mtq-Syx (mTurquoise fused to the N terminus of syntaxin1A) (rat) (UniProt P32851); assay: FRET or BRET; two-photon FLIM, A1 fraction; plasma membrane of β cells in mouse islets of Langerhans, probes by lentivirus, resting state
[11] = target: mtq-SNAP25b (mTurquoise fused to the N terminus of synaptosomal-associated protein 25b) (mouse) (UniProt P60879); assay: as above
[12] = target: mtq-Syx (mTurquoise fused to the N terminus of syntaxin1A) (rat) (UniProt P32851); assay: FRET or BRET
[13] = target: mtq-SNAP25b (mTurquoise fused to the N terminus of synaptosomal-associated protein 25b) (mouse) (UniProt P60879); assay: FRET or BRET

Chain of mtq-SNAP25b (mTurquoise fused to the N terminus of synaptosomal-associated protein 25b) (mouse) (P60879 whole entry, the tested form may be a part): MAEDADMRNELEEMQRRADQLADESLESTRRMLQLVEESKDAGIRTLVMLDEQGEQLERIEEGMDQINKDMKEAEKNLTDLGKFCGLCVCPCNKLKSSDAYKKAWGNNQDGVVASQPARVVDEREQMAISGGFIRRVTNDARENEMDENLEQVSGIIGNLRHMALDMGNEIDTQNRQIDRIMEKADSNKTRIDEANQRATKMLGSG
Chain of mtq-Syx (mTurquoise fused to the N terminus of syntaxin1A) (rat) (P32851 whole entry, the tested form may be a part): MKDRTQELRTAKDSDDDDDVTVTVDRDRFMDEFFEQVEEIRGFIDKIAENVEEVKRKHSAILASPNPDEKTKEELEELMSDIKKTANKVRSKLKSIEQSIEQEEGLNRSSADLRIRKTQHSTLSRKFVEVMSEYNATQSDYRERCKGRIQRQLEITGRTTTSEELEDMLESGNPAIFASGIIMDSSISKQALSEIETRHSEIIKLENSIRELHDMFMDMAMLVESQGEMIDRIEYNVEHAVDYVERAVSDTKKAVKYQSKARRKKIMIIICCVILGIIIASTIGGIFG
Chain of Syx-mtq (mTurquoise fused to the C terminus of syntaxin1A) (rat) (P32851 whole entry, the tested form may be a part): as above
Chain of mtq2-Syx (mTurquoise2 fused to the N terminus of syntaxin1A) (rat) (P32851 whole entry, the tested form may be a part): as above
Chain of Syx-mtq2 (mTurquoise2 fused to the C terminus of syntaxin1A) (rat) (P32851 whole entry, the tested form may be a part): as above

VAMP2-Ven (Venus fused to the C terminus of VAMP2) (from UniProt P63045 1-116) (natural protein)
A1 fraction (FRET of cis-complexes), boutons, resting state [1]: 3.7% | A1 fraction (binding fraction, cis-complex), axons [2]: 21.5% | A1 fraction (binding fraction, cis-complex), boutons [2]: 24.7% | increase in the A1 fraction in boutons on 300 mM sucrose (average lifetime) [3]: 12.9% | increase in the A1 fraction in boutons on 300 mM sucrose (decay curve fitting) [3]: 11.8% | A1 fraction (FRET of cis-complexes), boutons, during sucrose stimulation [4]: 13.6%

Ven-VAMP2 (Venus fused to the N terminus of vesicle-associated membrane protein 2) (from UniProt P63045 1-116) (natural protein)
mean trans-SNARE fraction in boutons (A1b−A1a) [5]: 11.9% | trans-SNARE fraction in the active zone (A1s–A1a), spines with volumes >0.25 [5]: 27.7% | A1 fraction (binding fraction), boutons, after fixation [6]: 33.2% | A1 fraction (binding fraction), pixels in axons [6]: 15.6% | A1 fraction (binding fraction), pixels of boutons negative for synaptophysin [6]: 17.4% | A1 fraction (binding fraction), pixels of boutons positive for synaptophysin [6]: 38.8% | A1 fraction (binding fraction), axons [7]: 22.4% | A1 fraction (binding fraction), boutons, live [7]: 34.1% | trans-SNARE fraction in each bouton (A1b−A1a) [7]: 11.6% | A1 fraction (binding fraction), axons [8]: 22.7% | A1 fraction (binding fraction), boutons [8]: 36.7% | peak A1 fraction (binding fraction) before single exocytotic events, averaged traces of 61 events, 16 mM glucose [9]: 8.3% | A1 fraction (binding fraction), plasma membrane of resting β cells [10]: < 2% | A1 fraction (binding fraction), plasma membrane of resting β cells [11]: < 2% | other [12]: 16.3% | other [13]: 14.5%
